# B1: EY6A IgG (antibody, V domains shown)
# VH: EVQLVESGGGVVQPGRSLRLSCAASAFTFSSYDMHWVRQAPGKGLEWVAVISYDGSNKYYADSVKGRFTISRDNSKNTLYLQMNSLRAEDTAVYYCAKDGGKLWVYYFDYWGQGTLVTVSS
# VL: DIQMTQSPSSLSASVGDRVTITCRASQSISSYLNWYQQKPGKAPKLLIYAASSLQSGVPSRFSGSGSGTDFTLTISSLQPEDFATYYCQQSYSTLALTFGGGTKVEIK
# notes: also called antibody EY6A; EY6A mAb; copies: 2 + 2
# B2: nanobody (Nb) used as crystallisation chaperone (VHH)
# VHH: QVQLVESGGGLMQAGGSLRLSCAVSGRTFSTAAMGWFRQAPGKEREFVAAIRWSGGSAYYADSVKGRFTISRDKAKNTVYLQMNSLKYEDTAVYYCAQTHYVSYLLSDYATWPYDYWGQGTQVTVSS
# B3: EY6A Fab (digested from IgG with papain) (Fab, V domains shown)
# VH: B1 VH
# VL: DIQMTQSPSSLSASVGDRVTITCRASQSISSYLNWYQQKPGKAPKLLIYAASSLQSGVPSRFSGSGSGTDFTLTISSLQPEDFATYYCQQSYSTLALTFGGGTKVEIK
# notes: also called Fab-EY6A; source: digested from ExpiCHO-made IgG with papain (Pierce Fab Preparation Kit)
# How the values were obtained:
# [1] = biological target: T1, S1 subunit of SARS-CoV-1 Spike (SARS-CoV-1 (SARS-CoV), strain , UniProt P59594); test: ELISA
# T1 construct: source: bought: Sino Biological
# [2] = biological target: biotinylated SARS-CoV-2 RBD (SARS-CoV-2, UniProt P0DTC2); test: cell-based ACE2 blocking assay (plate, streptavidin-HRP)
# [3] = biological target: deglycosylated SARS-CoV-2 RBD (SARS-CoV-2, UniProt P0DTC2); test: crystal structure; details: both partners purified
# SARS-CoV-2 RBD-Fc = SARS-CoV-2 RBD-Fc (SARS-CoV-2, strain  …, UniProt P0DTC2); test: SPR; details: both partners purified
binder,measurement,setting,value
B1,binding result,[1],binds
same,IC50,[2],54 nM
B2,binding result,[3],binds
B3,Kd,SARS-CoV-2 RBD-Fc,2 nM

# Reference: paper doi:10.1101/2020.06.12.148387 (bioRxiv, 2020)
